Laboratory results as given in the supplement of paper PMC10567573.

B1: OAS1 (parent)
chain: LQLGEGVEFDVLPAFDALGQLTGG

Variants of: B1
Experiment: protein stability index of a GFP-peptide fusion (GPS, HEK-293T) (PSI 1-6); higher = more stable
Conditions: c terminus: a fixed tail appended
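Further: lentivirally expressed fusions sorted by FACS into six bins by GFP to DsRed ratio, PSI derived from sequencing read proportions per bin multiplied by bin number.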

| Variant | protein stability index |
| --- | --- |
| LQIGEGVEFDVLPAFDALGQLTGG | 2.26 |
| LQSGEGVEFDVLPAFDALGQLTGG | 3.02 |
| LQYGEGVEFDVLPAFDALGQLTGG | 3.37 |
| LQMGEGVEFDVLPAFDALGQLTGG | 2.34 |
| LQRGEGVEFDVLPAFDALGQLTGG | 3.24 |
| LQTGEGVEFDVLPAFDALGQLTGG | 3.61 |
| LQWGEGVEFDVLPAFDALGQLTGG | 2.49 |
| LQHGEGVEFDVLPAFDALGQLTGG | 4.17 |
| LQQGEGVEFDVLPAFDALGQLTGG | 3.6 |
| LQGGEGVEFDVLPAFDALGQLTGG | 2.93 |
| LQVGEGVEFDVLPAFDALGQLTGG | 2.34 |
| LQCGEGVEFDVLPAFDALGQLTGG | 2.57 |
| LQKGEGVEFDVLPAFDALGQLTGG | 3.97 |
| LQNGEGVEFDVLPAFDALGQLTGG | 1.72 |
| LQPGEGVEFDVLPAFDALGQLTGG | 4.01 |
| LQEGEGVEFDVLPAFDALGQLTGG | 4.56 |
| LQFGEGVEFDVLPAFDALGQLTGG | 2.08 |
| LQAGEGVEFDVLPAFDALGQLTGG | 3.65 |
| LQDGEGVEFDVLPAFDALGQLTGG | 2.98 |
| LQLGYGVEFDVLPAFDALGQLTGG | 1.14 |
| LQLGDGVEFDVLPAFDALGQLTGG | 2.24 |
| LQLGMGVEFDVLPAFDALGQLTGG | 1.15 |
| LQLGKGVEFDVLPAFDALGQLTGG | 2.09 |
| LQLGHGVEFDVLPAFDALGQLTGG | 1.68 |

| Variant | protein stability index |
| --- | --- |
| LQLGVGVEFDVLPAFDALGQLTGG | 2.24 |
| LQLGGGVEFDVLPAFDALGQLTGG | 2.63 |
| LQLGPGVEFDVLPAFDALGQLTGG | 1.93 |
| LQLGAGVEFDVLPAFDALGQLTGG | 1.99 |
| LQLGCGVEFDVLPAFDALGQLTGG | 1.25 |
| LQLGTGVEFDVLPAFDALGQLTGG | 2.05 |
| LQLGQGVEFDVLPAFDALGQLTGG | 1.64 |
| LQLGWGVEFDVLPAFDALGQLTGG | 2.32 |
| LQLGLGVEFDVLPAFDALGQLTGG | 1.02 |
| LQLGNGVEFDVLPAFDALGQLTGG | 2.09 |
| LQLGEGCEFDVLPAFDALGQLTGG | 1.34 |
| LQLGEGDEFDVLPAFDALGQLTGG | 2.04 |
| LQLGEGKEFDVLPAFDALGQLTGG | 2.27 |
| LQLGEGEEFDVLPAFDALGQLTGG | 2.5 |
| LQLGEGHEFDVLPAFDALGQLTGG | 2.9 |
| LQLGEGAEFDVLPAFDALGQLTGG | 2.33 |
| LQLGEGIEFDVLPAFDALGQLTGG | 2.84 |
| LQLGEGFEFDVLPAFDALGQLTGG | 1.8 |
| LQLGEEVEFDVLPAFDALGQLTGG | 2.38 |
| LQLGEAVEFDVLPAFDALGQLTGG | 1.53 |
| LQLGEIVEFDVLPAFDALGQLTGG | 1.28 |
| LQLGEWVEFDVLPAFDALGQLTGG | 1.74 |
| LQLGEYVEFDVLPAFDALGQLTGG | 1.3 |
| LQLGERVEFDVLPAFDALGQLTGG | 2.33 |

| Variant | protein stability index |
| --- | --- |
| LQLGEFVEFDVLPAFDALGQLTGG | 1.63 |
| LQLGECVEFDVLPAFDALGQLTGG | 1.83 |
| LQLGEMVEFDVLPAFDALGQLTGG | 2.01 |
| LQLGENVEFDVLPAFDALGQLTGG | 2.25 |
| LQLGEHVEFDVLPAFDALGQLTGG | 2.8 |
| LQLGEDVEFDVLPAFDALGQLTGG | 1.88 |
| LQLGEQVEFDVLPAFDALGQLTGG | 2.51 |
| LQLGETVEFDVLPAFDALGQLTGG | 1.55 |
| LQLGEKVEFDVLPAFDALGQLTGG | 3 |
| LQLGEPVEFDVLPAFDALGQLTGG | 2.94 |
| LQLGESVEFDVLPAFDALGQLTGG | 2.39 |
| YQLGEGVEFDVLPAFDALGQLTGG | 2.31 |
| VQLGEGVEFDVLPAFDALGQLTGG | 2.71 |
| SQLGEGVEFDVLPAFDALGQLTGG | 3.65 |
| TQLGEGVEFDVLPAFDALGQLTGG | 3.33 |
| MQLGEGVEFDVLPAFDALGQLTGG | 2.57 |
| KQLGEGVEFDVLPAFDALGQLTGG | 3.67 |
| NQLGEGVEFDVLPAFDALGQLTGG | 4.18 |
| RQLGEGVEFDVLPAFDALGQLTGG | 4.01 |
| IQLGEGVEFDVLPAFDALGQLTGG | 1.04 |
| LPLGEGVEFDVLPAFDALGQLTGG | 3.18 |
| LTLGEGVEFDVLPAFDALGQLTGG | 1.61 |
| LCLGEGVEFDVLPAFDALGQLTGG | 1.04 |
| LMLGEGVEFDVLPAFDALGQLTGG | 3.19 |

| Variant | protein stability index |
| --- | --- |
| LNLGEGVEFDVLPAFDALGQLTGG | 2.41 |
| LILGEGVEFDVLPAFDALGQLTGG | 2.81 |
| LALGEGVEFDVLPAFDALGQLTGG | 3.5 |
| LGLGEGVEFDVLPAFDALGQLTGG | 1.74 |
| LDLGEGVEFDVLPAFDALGQLTGG | 2.84 |
| LELGEGVEFDVLPAFDALGQLTGG | 3.58 |
| LQLPEGVEFDVLPAFDALGQLTGG | 2.36 |
| LQLCEGVEFDVLPAFDALGQLTGG | 1.38 |
| LQLMEGVEFDVLPAFDALGQLTGG | 2.36 |
| LQLQEGVEFDVLPAFDALGQLTGG | 2.75 |
| LQLEEGVEFDVLPAFDALGQLTGG | 3.05 |
| LQLREGVEFDVLPAFDALGQLTGG | 1.78 |
| LQLKEGVEFDVLPAFDALGQLTGG | 2.8 |
| LQLVEGVEFDVLPAFDALGQLTGG | 1.7 |
| LQLHEGVEFDVLPAFDALGQLTGG | 2.25 |
| LQLNEGVEFDVLPAFDALGQLTGG | 2.16 |
| LQLWEGVEFDVLPAFDALGQLTGG | 1.65 |
| LQLIEGVEFDVLPAFDALGQLTGG | 1.88 |
| LQLSEGVEFDVLPAFDALGQLTGG | 1.4 |
| LQLYEGVEFDVLPAFDALGQLTGG | 1.08 |
| LQLFEGVEFDVLPAFDALGQLTGG | 1.17 |
| LQLTEGVEFDVLPAFDALGQLTGG | 2.28 |
